Source: article PMC8395497

What was measured:
[1] = biological target: Halichondria panicea ferritin HpF1 (Halichondria panicea (endogenous in sponge body tissue)); assay: native gel or EMSA; sponge body tissue homogenates (20 mM EDTA, 50 mM Hepes-Na pH 7.2, 200 mM NaCl, 4 °C) on a native 3.5-10% polyacrylamide gradient gel in 50 mM Bis-Tris-glycine pH 8.0; Prussian blue staining and UV 360 nm absorbance; markers horse ferritin (440 kDa) and thyroglobulin (670 kDa); high molecular mass bands cut out and identified by MALDI/TOF mass spectrometry
[2] = biological target: Halisarca dujardini ferritin HdF1a/b (Halisarca dujardini (endogenous in sponge body tissue)); assay: as above

stoichiometry N [1] | stoichiometry N [2] | Substance
24 subunits | – | Halichondria panicea ferritin HpF1 (natural protein)
– | 24 subunits | Halisarca dujardini ferritin HdF1a/b (natural protein)
